Measured values: US20230303667A1
Values joined by “and” are separate entries in the source; they are usually repeats but may differ in a detail not shown here. Equal values may be shown once.

Target: Ebola virus Full length GP (Ebola virus (strain not stated))
Experiment: ELISA on Full length GP

In the case of 13F6 (antibody), the EC50 was 0.004 µg/mL and 0.0027 nM.
